IntAct's records for PubMed 14707132

Biological target: pak1_rat Pak1 (UniProt P35465)
Sequence (P35465 whole entry): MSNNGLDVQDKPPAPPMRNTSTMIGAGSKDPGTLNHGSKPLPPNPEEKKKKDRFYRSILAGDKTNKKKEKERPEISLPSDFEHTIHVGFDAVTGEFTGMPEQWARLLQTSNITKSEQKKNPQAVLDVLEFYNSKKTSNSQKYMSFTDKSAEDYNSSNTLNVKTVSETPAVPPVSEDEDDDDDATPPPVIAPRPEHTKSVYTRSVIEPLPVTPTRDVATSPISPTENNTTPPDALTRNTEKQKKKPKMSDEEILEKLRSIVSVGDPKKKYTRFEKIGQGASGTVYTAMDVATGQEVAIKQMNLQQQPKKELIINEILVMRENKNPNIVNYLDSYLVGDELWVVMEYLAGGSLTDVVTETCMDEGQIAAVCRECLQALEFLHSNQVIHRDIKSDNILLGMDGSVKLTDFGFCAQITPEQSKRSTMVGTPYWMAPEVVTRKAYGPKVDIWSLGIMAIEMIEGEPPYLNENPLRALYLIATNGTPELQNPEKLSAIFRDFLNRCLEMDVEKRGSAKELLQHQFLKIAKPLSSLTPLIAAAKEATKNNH

Serine/threonine-protein kinase OSR1 (Homo sapiens), O95747 K46A, sequence (O95747 whole entry K46A): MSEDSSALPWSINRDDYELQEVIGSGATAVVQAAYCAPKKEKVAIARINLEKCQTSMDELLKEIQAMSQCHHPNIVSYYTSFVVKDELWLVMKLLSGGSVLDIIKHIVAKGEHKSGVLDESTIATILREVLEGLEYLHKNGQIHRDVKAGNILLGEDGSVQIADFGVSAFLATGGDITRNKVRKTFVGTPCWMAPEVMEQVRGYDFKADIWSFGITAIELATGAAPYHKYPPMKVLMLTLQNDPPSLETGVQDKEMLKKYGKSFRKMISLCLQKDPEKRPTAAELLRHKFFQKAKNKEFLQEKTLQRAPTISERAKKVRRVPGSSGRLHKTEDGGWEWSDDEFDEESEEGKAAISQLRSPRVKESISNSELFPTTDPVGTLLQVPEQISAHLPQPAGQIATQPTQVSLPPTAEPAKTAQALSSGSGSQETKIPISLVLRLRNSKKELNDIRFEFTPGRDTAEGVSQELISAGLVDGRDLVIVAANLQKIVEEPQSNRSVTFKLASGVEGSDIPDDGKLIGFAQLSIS

effect of a mutation on the interaction: decreasing interaction
Substance: Serine/threonine-protein kinase OSR1 (Homo sapiens), O95747 K46A
